Laboratory results: patent US20170240619A1 (GARVAN INSTITUTE OF MEDICAL RESEARCH, published 2017)

Molecular target: T1, HER2 on SK-BR-3 human breast cancer cells (human, UniProt P04626 23-1255)
T1 construct: whole, on cells; also called SK-BR-3 cells; whole cell (SK-BR-3)
Experiment: flow cytometry on SK-BR-3 cells, human IgG1, anti-human IgG-FITC detection
Description: Following washes in PBS containing 1% BSA, secondary antibody anti-human IgG-FITC (Sigma) was added for 30 min on ice. Fluorescence intensity of the live cell population was recorded using FACSCalibur (BD Biosciences) and analyzed using FlowJo 7.6.5 software (Tree Star).

| EC50 | Binder |
| --- | --- |
| 0.827 µg/mL | 4D5 as human IgG1, VH 30D (30D/WT) (antibody, V domains shown) VH: QVQLVESGGGLVQPGGSLRLSCAASGFNIDDTYIHWVRQAPGKGLEWVARIYPTNGYTRYADSVKGRFTISADTSKNTAYLQMNSLRAEDTAVYYCSRWGGDGFYAMDVWGQGTLVTVSS VL: not shown |
| 0.978 µg/mL | 4D5 as human IgG1, VH 30D and VL 52D (30D/52D) (antibody, V domains shown) VH: QVQLVESGGGLVQPGGSLRLSCAASGFNIDDTYIHWVRQAPGKGLEWVARIYPTNGYTRYADSVKGRFTISADTSKNTAYLQMNSLRAEDTAVYYCSRWGGDGFYAMDVWGQGTLVTVSS VL: QIQMTQSPSSLSASVGDRVTITCRASQDVNTAVAWYQQKPGKAPKLLIYSADFLESGVPSRFSGSRSGTDFTLTISSLQPEDFATYYCQQHYTTPPTFGQGTKVEIK |
